Source: patent US20230287125A1 (LEPU BIOPHARMA, published 2023)

Key:
[1] = target: T1, human PD-L1 over-expressed on CHOK1 cells (human, UniProt Q9NZQ7 19-290); assay: flow cytometry on PDL1-CHOK1 cells
T1 construct: whole, on cells; also called PDL1-CHOK1 cells
Experimental: After washing by PBS, Alexa Fluor® 647 AffiniPure Goat Anti-Human IgG (H+L) was added to each well and incubated at 4° C. for 30 mins. Samples were washed twice with FACS buffer. The mean florescence intensity (MFI) of Alexa Fluor® 647 was evaluated by FACSCanto.

[2] = target: T2, human PD-L1-Fc protein (human, UniProt Q9NZQ7 19-238); assay: ELISA, antibody titrated on coated human PD-L1-Fc, OD 450nm; upper left panel (with Hu67F3G7-1 to -6)
T2 construct: coating antigen of the ELISAs; also called rhPD-L1-Fc; not shown: Fc
Experimental: (§1) To evaluate antigen binding activity, the humanized antibodies were subjected to ELISA test. Briefly, microtiter plates were coated with human PD-L1-Fc protein at 0.5 μg/ml in PBS, 100 μl/well at 4° C. overnight, then blocked with 200 μl/well of 1% BSA. Three-fold dilutions of humanized antibodies starting from 10 μg/ml were added to each well and incubated for 1 hour at 37° C. The plates were washed with PBS/Tween and then incubated with mouse-anti-human IgG Fab antibody conjugated with Horse Radish Peroxidase (HRP) for 1 hour at 37° C. After washing, the plates were developed with TMB substrate and analyzed by spectrophotometer at OD 450 nm.

[3] = target: T2, human PD-L1-Fc protein; assay: receptor blocking ELISA: coated human PD-L1-Fc, blocked ligand biotin-labeled human PD-1-Fc (Bio-PD1), OD 450nm; upper left panel (with Hu67F3G7-2)
Experimental: (§2) Briefly, microtiter plates were coated with human PD-L1-Fc protein at 0.5 μg/ml in PBS, 100 μl/well at 4° C. overnight, then blocked with 150 μl/well of 1% BSA at 37° C. for 2 hours. […] The plates were washed with PBS/Tween and then incubated with Streptavidin-HRP for 10 mins at 37° C. After washing, the plates were developed with TMB substrate and analyzed by spectrophotometer at OD 450 nm.

[4] = target: T2, human PD-L1-Fc protein; assay: receptor blocking ELISA: coated human PD-L1-Fc, blocked ligand biotin-labeled human PD-1-Fc (Bio-PD1), OD 450nm; upper right panel (with Hu67F3G7-3)
Experimental: as §2

[5] = target: T2, human PD-L1-Fc protein; assay: competition ELISA, coated human PD-L1-Fc, biotin-labeled human PD-1-Fc as competitor
Experimental: as §2, with “BSA.” for “BSA at 37° C. for 2 hours.”

[6] = target: T2, human PD-L1-Fc protein; assay: ELISA, antibody titrated on coated human PD-L1-Fc, OD 450nm; upper right panel (with Hu67F3G7-7 to -12)
Experimental: as §1

[7] = target: T2, human PD-L1-Fc protein; assay: receptor blocking ELISA: coated human PD-L1-Fc, blocked ligand biotin-labeled human CD80-Fc (Bio-CD80), OD 450nm; upper left panel (with Hu67F3G7-2)
Experimental: as §2

[8] = target: T1, human PD-L1 over-expressed on CHOK1 …; assay: flow cytometry (MFI) on PDL1-CHOK1 cells; upper right panel (with the Hu67F3G7 antibodies)
Experimental: To evaluate the antigen binding property, the humanized antibodies were analyzed for their binding to PD-L1 overexpressed on mammalian cells by FACS. Briefly, PDL1-CHOK1 cells were firstly incubated with 3-fold serious diluted humanized antibodies starting at 15 μg/ml at 4° C. for 40 mins. After washed by PBS, the Alexa Fluor® 647 AffiniPure Goat Anti-Human IgG (H+L) antibody was added to each well and incubated at 4° C. for 30 mins. The MFI of Alexa Fluor® 647 was evaluated by FACSCanto.

T2 sequence (Q9NZQ7 19-238 limits assumed): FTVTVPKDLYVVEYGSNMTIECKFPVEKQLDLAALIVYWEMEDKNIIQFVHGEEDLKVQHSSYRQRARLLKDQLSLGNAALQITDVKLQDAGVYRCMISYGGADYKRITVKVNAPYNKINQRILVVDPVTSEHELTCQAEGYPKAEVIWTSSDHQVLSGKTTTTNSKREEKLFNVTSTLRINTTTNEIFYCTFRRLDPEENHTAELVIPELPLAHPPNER
T1 sequence (Q9NZQ7 19-290): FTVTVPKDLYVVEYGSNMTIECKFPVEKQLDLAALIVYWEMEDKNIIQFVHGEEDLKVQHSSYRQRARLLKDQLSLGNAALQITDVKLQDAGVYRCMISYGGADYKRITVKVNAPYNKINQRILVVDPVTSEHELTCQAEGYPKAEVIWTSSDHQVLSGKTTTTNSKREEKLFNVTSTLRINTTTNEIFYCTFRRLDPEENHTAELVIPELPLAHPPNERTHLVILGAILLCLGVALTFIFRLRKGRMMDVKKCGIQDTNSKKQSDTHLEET

B1: 67F3G7 chimeric mAb (antibody, V domains shown)
VH: QVKLLQSGAALVKPGASVKMSCKASGYIFTDFWVSWVKQSHEKSLEWIGEIYPNSGVSRYNEKFKGRATMTVDKSTSTAYLELSRLTSEDSAIYYCTKYFGYTYWFGYWGQGTLVTVSS
VL: DTVLTQSPALAVSLGQRITISCRASKSVSTYMHWYQQRSGLQPKLLIYSASHLESGVPSRFSGSGSGTDFTLTIDPVEADDIANYYCQQSNELPVTFGSGTKLEIK
notes: chimeric mAb of the hybridoma clone; also called 67F3G7-chimera
- EC50 [1]: 0.103 nM
- EC50 [2]: 0.0141 µg/mL
- IC50 [3]: 0.149 µg/mL
- IC50 [4]: 0.136 µg/mL
- IC50 [5]: 0.14 µg/mL
- EC50 [6]: 0.0129 µg/mL
- IC50 [7]: 0.256 µg/mL
- EC50 [8]: 0.0577 nM
